Entries after “also recorded” stand apart in the source; their conditions may differ.
B1: VCre: full-length tyrosine recombinase (SEQ ID NO: 16), recognizes VloxP (protein)
chain: MIENQLSLLGDFSGVRPDDVKTAIQAAQKKGINVAENEQFKAAFEHLLNEFKKREERYSPNTLRRLESAWTCFVDWCLANHRHSLPATPDTVEAFFIERAEELHRNTLSVYRWAISRVHRVAGCPDPCLDIYVEDRLKAIARKKVREGEAVKQASPFNEQHLLKLTSLWYRSDKLLLRRNLALLAVAYESMLRASELANIRVSDMELAGDGTAILTIPITKTNHSGEPDTCILSQDVVSLLMDYTEAGKLDMSSDGFLFVGVSKHNTCIKPKKDKQTGEVLHKPITTKTVEGVFYSAWETLDLGRQGVKPFTAHSARVGAAQDLLKKGYNTLQIQQSGRWSSGAMVARYGRAILARDGAMAHSRVKTRSAPMQWGKDEKD
B2: split Flp system: split Flp recombinase construct fused to ABA-binding domains ABI and PYL (SEQ ID NO: 38 and 39) (protein)
chain 1: MSQFDILCKTPPKVLVRQFVERFERPSGEKIASCAAELTYLCWMITHNGTAIKRATFMSYNTIISNSLSFDIVNKSLQFKYKTQKATILEASLKKLIPAWEFTIIPYNGQKHQSDITDIVSSLQLQFESSEEADKGNSHSKKMLKALLSEGESIWEITEKILNSFEYTSRFTKTKTLYQFLFLATFINCGRFSDIKNVDPKSFKLVQNKYLGVIIQCLVTETKTSVSRHIYFFSARGRIDPLVYLDEFLRNSEPVLKRVNRTGNSSSNKQEYQLLKDNLVRSYNKALKKNAPYPIFAIKNGPKSHIGRHLMTSFLSMKGLTELTNVVGNWSDKRASAVARTTYTHQITAIPDHYFALVSRYYAYDPISKEMIALKDETNPIEEWQHIEQLKGSAEGSGGSGSGSSGGSGTPLYGFTSICGRRPEMEDAVSTIPRFLQSSSGSMLDGRFDPQSAAHFFGVYDGHGGSQVANYCRERMHLALAEEIAKEKPMLCDGDTWLEKWKKALFNSFLRVDSEIGSVAPETVGSTSVVAVVFPSHIFVANCGDSRAVLCRGKTALPLSVDHKPDREDEAARIEAAGGKVIQWNGARVFGVLAMSRSIGDRYLKPSIIPDPEVTAVKRVKEDDCLILASDGVWDVMTDEEACEMARKRILLWHKKNAVAGDASLLADERRKEGKDPAAMSAAEYLSKLAIQRGSKDNISVVVVDLKDYKDDDDKPKKKRKV
chain 2: MAPTQDEFTQLSQSIAEFHTYQLGNGRCSSLLAQRIHAPPETVWSVVRRFDRPQIYKHFIKSCNVSEDFEMRVGCTRDVNVISGLPANTSRERLDLLDDDRRVTGFSITGGEHRLRNYKSVTTVHRFEKEEEEERIWTVVLESYVVDVPEGNSEEDTRLFADTVIRLNLQKLASITEAMNYPYDVPDYASGGSGSGSSGGSGTSIRYPAWNGIISQEVLDYLSSYINRRIPKKKRKV
B3: Cre: full-length tyrosine recombinase, recognizes loxP (protein)
chain: MSNLLTVHQNLPALPVDATSDEVRKNLMDMFRDRQAFSEHTWKMLLSVCRSWAAWCKLNNRKWFPAEPEDVRDYLLYLQARGLAVKTIQQHLGQLNMLHRRSGLPRPSDSNAVSLVMRRIRKENVDAGERAKQALAFERTDFDQVRSLMENSDRCQDIRNLAFLGIAYNTLLRIAEIARIRVKDISRTDGGRMLIHIGRTKTLVSTAGVEKALSLGVTKLVERWISVSGVADDPNNYLFCRVRKNGVAAPSATSQLSTRALEGIFEATHRLIYGAKDDSGQRYLAWSGHSARVGAARDMARAGVSIPEIMQAGGWTNVNIVMNYIRNLDSETGAMVRLLEDGD
B4: Flp 396: Flp (SEQ ID NO: 1) split into aa 1-396 and 397-423, fused to CIDD pair (protein)
chain 1: MSQFDILCKTPPKVLVRQFVERFERPSGEKIASCAAELTYLCWMITHNGTAIKRATFMSYNTIISNSLSFDIVNKSLQFKYKTQKATILEASLKKLIPAWEFTIIPYNGQKHQSDITDIVSSLQLQFESSEEADKGNSHSKKMLKALLSEGESIWEITEKILNSFEYTSRFTKTKTLYQFLFLATFINCGRFSDIKNVDPKSFKLVQNKYLGVIIQCLVTETKTSVSRHIYFFSARGRIDPLVYLDEFLRNSEPVLKRVNRTGNSSSNKQEYQLLKDNLVRSYNKALKKNAPYPIFAIKNGPKSHIGRHLMTSFLSMKGLTELTNVVGNWSDKRASAVARTTYTHQITAIPDHYFALVSRYYAYDPISKEMIALKDETNPIEEWQHIEQLKGSAEG
chain 2: SIRYPAWNGIISQEVLDYLSSYINRRI
modifications: fused to CIDD pair

How the values were obtained:
Type in all cases: cell-based, human
[1] = system: BUF logic reporters in HEK293FT; test: Recombinase activity, orthogonality and cross-reactivity on BUF logic reporters; conditions: transient transfection, dose-response (FIG. 8)
Experimental: FIG. 8A-8C show recombinase cross-reactivity dose-response profile of Cre, Dre, VCre and Vika. FIG. 8A is a summary of intended and unintended recombination of Cre, Dre, VCre and Vika site-specific recombinases.
(§1) DNA was transfected into the human embryonic kidney cell line (HEK293FT) using a polyethylenimine (PEI) protocol. Cells were plated onto 48-(2504) or 96-well (1004) plates the day prior to transfection (200,000 cells/mL), such that the cells were 50-70% confluent the day of transfection. Cells were kept in a humidified incubator at 37° C. and 5% CO2 and maintained in DMEM medium (Corning) with 10% Heat Inactivated Fetal Bovine Serum (Life Technologies), 50 U.I./mL penicillin/50 μg/mL streptomycin (Corning), 2 mM glutamine (Corning) and 1 mM sodium pyruvate (Lonza). […]
(§2) Two days post-transfection and after trypsinization (0.05% Trypsin/0.53 mM EDTA, Corning) and resuspension, all HEK293FT cell populations were analyzed using a Becton Dickinson (BD) LSRFortessa SORP flow cytometer with HTS, except for data in FIG. 5, which were recorded on a BD LSRII. Time-course data was achieved through trypsinization and fixation of cells at particular time points (BD Cytofix) and kept at 4° C. until analyzed through flow cytometry. […]

[2] = system: 2-input BLADE decoder in HEK293FT cells; test: 4OHT- and ABA-inducible 2-input BLADE decoder; conditions: transient transfection, 4OHT 1 μM, ABA 100 μM
Experimental: as §1, with “(Lonza). PEI stocks were made from linear polyethylenimine (Polysciences 23966-2) and were dissolved at a concentration of 0.323 g/L in deionized water with the assistance of concentrated hydrochloric acid and sodium hydroxide and then filtered sterilized (0.24 μm). PEI stocks were stored at −80° C. until use and warmed to room temperature prior to usage.” for “(Lonza).”
as §2

[3] = system: pCAG-FRT-Neo-FRT-GFP reporter; test: Gibberellin ester (GIB)-induced split-Flp rejoinder, GFP reporter; conditions: GAI/GID1 CIDD pair; with vs without GIB
Experimental: Full length FlpO and split Flp vectors were tested for induction of recombinase activity on a pCAG-FRT-Neo-FRT-GFP reporter with and without the presence of gibberellin ester (GIB).
FIGS. 43A-43E show results of gene expression of different split-recombinase Flp (SEQ ID NO: 1) or B3 fragments (SEQ ID NO: 19). […] FIGS. 43B-43E show the GFP expression levels of different amino acid residue of split sites (S) of Flp amino acid sequence (top; shown in blue) and amino acid residue of split sites (S) of B3 amino acid sequence (below, shown in orange).
DNA was transfected into the human embryonic kidney cell line (HEK293FT) using a polyethylenimine (PEI) protocol. Cells were plated onto 48-(2504) or 96-well (1004) plates the day prior to transfection (200,000 cells/mL), such that the cells were 50-70% confluent the day of transfection. Cells were kept in a humidified incubator at 37° C. and 5% CO2 and maintained in DMEM medium (Corning) with 10% Heat Inactivated Fetal Bovine Serum (Life Technologies), 50 U.I./mL penicillin/50 μg/mL streptomycin (Corning), 2 mM glutamine (Corning) and 1 mM sodium pyruvate (Lonza). PEI stocks were made from linear polyethylenimine (Polysciences 23966-2) and were dissolved at a concentration of 0.323 g/L in deionized water with the assistance of concentrated hydrochloric acid and sodium hydroxide and then filtered sterilized (0.24 μm). PEI stocks were stored at −80° C. until use and warmed to room temperature prior to usage. For 48-well plate transfections, DNA (1000 ng, 50 ng/4) was dissolved and brought up to a volume of 50 μL using 0.15 M sodium chloride (NaCl, Fisher Scientific). DNA-NaCl solutions were then mixed with 50 μL of a PEI-NaCl mixture (8 uL PEI: 42 uL NaCl). These solutions were then incubated at room temperature for ten minutes and 25 μL was carefully dropped into individual wells of HEK293FT cells (250 ng DNA/well). Similarly, for 96-well plate transfections, DNA (500 ng, 50 ng/4) was dissolved and brought up to a volume of 25 μL using 0.15 M sodium chloride (NaCl). DNA-NaCl solutions were then mixed with 25 μL of a PEI-NaCl (4 uL PEI: 21 uL NaCl) mixture. These solutions were then incubated at room temperature for ten minutes and 10 μL was carefully dropped into individual wells of HEK293FT cells (100 ng DNA/well). Electronic space-adjustable multichannel pipettors (Integra Biosciences) were utilized throughout the process for rapid aspiration and dispensing of molecular and cellular reagents. […]
Two days post-transfection and after trypsinization (0.05% Trypsin/0.53 mM EDTA, Corning) and resuspension, all HEK293FT cell populations were analyzed using a Becton Dickinson (BD) LSRFortessa SORP flow cytometer with HTS. […]

Row | Molecule | Cross-reactivity on other recombinases' reporter constructs [1] | also measured
1 | B1 | showed cross-reactivity in a dose-dependent manner; also recorded: can recombine Vika's recombination sites | 
2 | B2 |  | Leaky recombinase behavior on 2-input BLADE decoder [2]: minimal leaky recombinase behavior
3 | B3 | showed cross-reactivity in a dose-dependent manner; also recorded: mutually cross-reactive | 
4 | B4 |  | GFP expression of split-Flp by split site (S) [3]: result in GFP expression in the presence of GIB

Reference: US12428633B2, “Inducible dimerization of recombinases” (TRUSTEES OF BOSTON UNIVERSITY, priority 2016, dated 2025)
